Like-named read-outs stand apart in the source and are kept apart here. Each block holds one binder with its values, some of them ahead of it.
What was measured:
[1] = biological target: T1, B7-H4 expressed on cells (MX-1 cells; CHO-S cells stably expressing B7-H4) (human, UniProt Q7Z7D3 25-282); experiment: flow cytometry (FACS) on MX-1 cells
T1 construct: whole, on cells; also called huB7-H4; antigens expressed by cells
T1 sequence (looked up): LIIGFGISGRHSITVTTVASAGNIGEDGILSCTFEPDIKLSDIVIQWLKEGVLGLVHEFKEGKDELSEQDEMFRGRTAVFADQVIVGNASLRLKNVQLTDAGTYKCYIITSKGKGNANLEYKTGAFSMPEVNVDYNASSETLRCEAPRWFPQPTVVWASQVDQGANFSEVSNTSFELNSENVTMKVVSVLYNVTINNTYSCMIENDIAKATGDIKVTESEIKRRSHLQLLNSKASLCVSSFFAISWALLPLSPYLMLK
Method: The cultured MX-1 cells were collected, cell density was adjusted with PBS pH 7.4, then plated onto a 96-well V-shaped bottom plate with 1×10⁵ cells per well, and centrifuged at 2000 rpm for 5 minutes to remove supernatant. 100 μl of the serially diluted chimeric antibody solution was added (diluted with 0.5% BSA in PBS to obtain a gradient of 3-fold dilutions, starting from 1 μM, with a total of 10 doses) into each well, mixed, and incubated for 1 hour at 4° C. with shaking; the culture was centrifuged at 2000 rpm for 5 minutes to remove the supernatant, and the cells were washed twice with PBS, and 100 μl of FITC-labeled goat anti-human secondary antibody (Abeam, cat #ab97224) diluted with 0.5% BSA in PBS was added into each well, mixed well and incubated for 30 minutes at 4° C. in a shaker. Centrifugation was performed at 2000 rpm for 5 minutes and the supernatant was removed. Cells were washed twice with PBS and resuspended in PBS. The signals were detected using flow cytometer (BECKMANCOULTER, model DxFLEX), and the concentration curve was plotted and the results were analyzed. As indicated in the table and figure, humanized antibodies 2F7, 2F8, 2G6 and 1C9 show positive bindings to MX-1 cells on which B7-H4 was highly expressed.

[2] = biological target: T2, Human B7-H4 with HisFlag tag (huB7-H4-his) (human, UniProt Q7Z7D3 25-258); experiment: SPR Biacore T200, antibody coupled to CM5 chip, hu-B7-H4-his in flow, 1:1 model
T2 construct: also called HuB7-H4 His protein; huB7-H4-HF
T2 sequence: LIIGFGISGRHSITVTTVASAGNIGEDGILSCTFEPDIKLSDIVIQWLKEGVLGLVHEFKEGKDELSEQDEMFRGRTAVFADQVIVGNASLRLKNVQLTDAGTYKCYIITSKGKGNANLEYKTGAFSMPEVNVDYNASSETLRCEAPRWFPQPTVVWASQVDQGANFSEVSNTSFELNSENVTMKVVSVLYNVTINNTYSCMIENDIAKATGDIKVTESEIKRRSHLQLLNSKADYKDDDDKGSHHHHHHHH

[3] = biological target: T3, antigen fragment P12 (TVASAGNIGEDGILSCTFEP) (human); experiment: indirect ELISA on antigen fragment
T3 peptide: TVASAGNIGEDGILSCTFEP

[4] = biological target: T4, antigen fragment TVASAGNIGEDGIASCTFEP (human); experiment: indirect ELISA on antigen fragment, alanine scan
T4 construct: Alanine-scan variant of P12; the entry already carries the alanine; also called P12 alanine mutant (L to A)
T4 peptide: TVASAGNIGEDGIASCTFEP

[5] = biological target: T5, antigen fragment TVASAGNIGEDGILSATFEP (human); experiment: indirect ELISA on antigen fragment, alanine scan
T5 construct: Alanine-scan variant of P12; the entry already carries the alanine; also called P12 alanine mutant (C to A)
T5 peptide: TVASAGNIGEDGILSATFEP

[6] = biological target: T6, antigen fragment TVASAGNIGEDGILSCTAEP (human); experiment: indirect ELISA on antigen fragment, alanine scan
T6 construct: Alanine-scan variant of P12; the entry already carries the alanine; also called P12 alanine mutant (F to A)
T6 peptide: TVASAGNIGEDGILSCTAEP

[7] = biological target: T3, antigen fragment P12 …; experiment: indirect ELISA on antigen fragment
[8] = biological target: T7, antigen fragment TVASAGNIGEDGILSCTFEA (human); experiment: indirect ELISA on antigen fragment, alanine scan
T7 construct: Alanine-scan variant of P12; the entry already carries the alanine; also called P12 alanine mutant (P to A)
T7 peptide: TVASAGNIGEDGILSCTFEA

[9] = biological target: T8, antigen fragment TVASAGNIGEDGALSCTFEP (human); experiment: indirect ELISA on antigen fragment, alanine scan
T8 construct: Alanine-scan variant of P12; the entry already carries the alanine; also called P12 alanine mutant (I to A)
T8 peptide: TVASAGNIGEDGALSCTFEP

[10] = biological target: T4, antigen fragment TVASAGNIGEDGIASCTFEP; experiment: indirect ELISA on antigen fragment, alanine scan
[11] = biological target: T5, antigen fragment TVASAGNIGEDGILSATFEP; experiment: indirect ELISA on antigen fragment, alanine scan
[12] = biological target: T9, antigen fragment TVASAGNIGEDGILSCAFEP (human); experiment: indirect ELISA on antigen fragment, alanine scan
T9 construct: Alanine-scan variant of P12; the entry already carries the alanine; also called P12 alanine mutant (T to A)
T9 peptide: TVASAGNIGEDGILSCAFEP

[13] = biological target: T6, antigen fragment TVASAGNIGEDGILSCTAEP; experiment: indirect ELISA on antigen fragment, alanine scan
[14] = biological target: T3, antigen fragment P12 …; experiment: indirect ELISA on antigen fragment
Method: (§1) The method procedures were the same as described in Example 3 (1): in vitro indirect ELISA binding assay. […] To further confirm the epitope to which the antibody binds, alanine scan was performed on the antigen fragment P12, that is, each single amino acid located in P12 was mutated to alanine respectively.

[15] = biological target: T8, antigen fragment TVASAGNIGEDGALSCTFEP; experiment: indirect ELISA on antigen fragment, alanine scan
Method: as §1

[16] = biological target: T4, antigen fragment TVASAGNIGEDGIASCTFEP; experiment: indirect ELISA on antigen fragment, alanine scan
Method: as §1

[17] = biological target: T5, antigen fragment TVASAGNIGEDGILSATFEP; experiment: indirect ELISA on antigen fragment, alanine scan
Method: as §1

[18] = biological target: T9, antigen fragment TVASAGNIGEDGILSCAFEP; experiment: indirect ELISA on antigen fragment, alanine scan
Method: as §1

[19] = biological target: T6, antigen fragment TVASAGNIGEDGILSCTAEP; experiment: indirect ELISA on antigen fragment, alanine scan
Method: as §1

[20] = biological target: T10, antigen fragment TVASAGNIGEDGILSCTFAP (human); experiment: indirect ELISA on antigen fragment, alanine scan
T10 construct: Alanine-scan variant of P12; the entry already carries the alanine; also called P12 alanine mutant (E to A)
T10 peptide: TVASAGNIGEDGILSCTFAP
Method: as §1

B1: humanized anti-B7-H4 antibody hu2F8 (antibody, human IgG1, kappa, V domains shown)
VH: EVQLVQSGAEVKKPGASVKVSCKASGYTFTSSWMNWVRQAPGQRLEWMGGIYPNRGNIEYNEKFKGRVTLTVDTSASTAYMELSSLRSEDTAVYYCARDSRFSYWGQGTLVTVSS
VL: DIQMTQSPSSLSASVGDRVTITCKASQDVRTAVAWYQQKPGKAPKLLISSTSYRYTGVPSRFSGSGSGTDFTFTISSLQPEDIATYYCQQHYSTPLTFGGGTKVEIKR
notes: human IgG1 / kappa; also called humanized antibody 2F8
- EC50 [1]: 7.26 nM
- Kd [2]: 0.25 nM
- koff [2]: 0.000112 s⁻¹
- kon [2]: 447000 M⁻¹ s⁻¹

B2: humanized anti-B7-H4 antibody hu1C9 (antibody, human IgG1, kappa, V domains shown)
VH: EVQLVQSGAEVKKPGASVKVSCKASGDTFTTYWMNWVRQAPGQRLEWMGGIYLNRGSSEYNEKFKGRVTLTVDTSASTAYMELSSLRSEDTAVYYCARDSRFSYWGQGTLVTVSS
VL: DIQMTQSPSSLSASVGDRVTITCKASQDVSTAVAWYQQKPGKAPKLLISSASYRYTGVPSRFSGSGSGTDFTFTISSLQPEDIATYYCQQHYNTPLTFGGGTKVEIKR
notes: human IgG1 / kappa; also called humanized antibody 1C9
- EC50 [3]: 272 nM
- EC50 [1]: 7.25 nM
- EC50 [4]: 467 nM
- EC50 [5]: 292 nM
- EC50 [6]: 488 nM
- Kd [2]: ≤ 0.0298 nM
- koff [2]: ≤ 1e-05 s⁻¹
- kon [2]: 335000 M⁻¹ s⁻¹

The remaining lines, values ahead:

- EC50 [7]: 793 nM
- EC50 [1]: 14.3 nM
- EC50 [8]: 2370 nM
- EC50 [9]: 2630 nM
- EC50 [10]: 3160 nM
- EC50 [11]: 3480 nM
- EC50 [12]: 2290 nM
- EC50 [13]: 2600 nM
- Kd [2]: ≤ 0.0135 nM
- koff [2]: ≤ 1e-05 s⁻¹
- kon [2]: 741000 M⁻¹ s⁻¹
B3: humanized anti-B7-H4 antibody hu2G6 (antibody, human IgG1, kappa, V domains shown)
VH: EVQLLESGGGLVQPGGSLRLSCAASGFTFSRYGMSWVRQAPGKGLEWVSGINGGGSYTYYLDTVKGRFTISRDNARNTLYLQMSSLRAEDTAVYYCVSQGSNYYFDYWGQGTLVTVSS
VL: DIRMTQSPSSLSASVGDRVTITCHASQGISSNIGWLQQKPGKAPKALIYHGTNLEDGVPSRFSGSGSGADYTLTISSLQPEDFATYYCVQYAQFPYTFGGGTKVEIKR
notes: human IgG1 / kappa; also called humanized antibody 2G6

- EC50 [14]: 118 nM
- EC50 [1]: 7.32 nM
- EC50 [15]: 771 nM
- EC50 [16]: 1480 nM
- EC50 [17]: 2010 nM
- EC50 [18]: 463 nM
- EC50 [19]: 986 nM
- EC50 [20]: 662 nM
- Kd [2]: 0.757 nM
- koff [2]: 0.000249 s⁻¹
- kon [2]: 329000 M⁻¹ s⁻¹
B4: humanized anti-B7-H4 antibody hu2F7 (antibody, human IgG1, kappa, V domains shown)
VH: EVQLVESGGGLVQPGGSLRLSCAASGFTFSNYYMSWVRQAPGKGLEWVAYVSSGGGSTYYSDSVKGRFTISRDNAKNTLYLQMSSLRAEDTAVYYCTRESYSQGNYFDYWGQGTTVTVSS
VL: EIVMTQSPATLSLSPGERATLSCRASQSISDYLHWYQQKPGQSPRLLIKFASQSISGIPARFSGSGSGTDFTLTISSLEPEDFAVYYCQNGHSFSLTFGQGTKLEIKR
notes: human IgG1 / kappa; also called humanized antibody 2F7

— patent US20210032347A1 (JIANGSU HANSOH PHARMACEUTICAL GROUP, published 2021)
